Assay in all cases: purified protein
Substrate in data set [1]: COc1ccccc1O
Conditions: citrate-phosphate buffer, optimum pH 3.5, 25 °C stated for activity assay.

Substrate in data set [2]: COc1cccc(OC)c1O
In kind it is biochemical, Pleurotus ostreatus. Conditions: citrate-phosphate buffer, optimum pH 3.0, 25 °C stated for activity assay.

Substrate in data set [3]: CCn1c(=NN=c2sc3cc(S(=O)(=O)O)ccc3n2CC)sc2cc(S(=O)(=O)O)ccc21
It is filed as biochemical, Pleurotus ostreatus. Conditions: citrate-phosphate buffer, optimum pH 3.0, 25 °C stated for activity assay.

B1: Recombinant laccase X33-Lac-2 (Pleurotus ostreatus) (protein)
chain: AIGPAGNMYIVNEDVSPDGFARSAVVARSVPATDPTPATASIPGVLVQGNKGDNFQLNVVNQLSDTTMLKTTSIHWHGFFQAGSSWADGPAFVTQCPVASGDSFLYNFNVPDQAGTFWYHSHLSTQYCDGLRGPFVVYDPSDPHLSLYDIDNADTVITLEDWYHIVAPQNAAIPTPDSTLINGKGRYAGGPTSPLAIINVESNKRYRFRLVSMSCDPNFTFSIDGHSLLVIEADAVNIVPITVDSIQIFAGQRYSFVLTANQAVDNYWIRANPNLGSTGFVGGINSAILRYAGATEDDPTTTSSTSTPLLETNLVPLENPGAPGPPVPGGADININLAMAFDFTTFELTINGVPFLPPTAPVLLQILSGASTAASLLPSGSIYELEANKVVEISMPALAVGGPHPFHLHGHTFDVIRSAGSTTYNFDTPARRDVVNTGTGANDNVTIRFVTDNPGPWFLHCHIDWHLEIGLAVVFAEDVTSISAPPAAWDDLCPIYNALSDNDKGGIVPS
notes: about 57 kDa on SDS-PAGE
Take B1: the Km in the data set “purified protein [1]” is 302.4 ± 26.0 µM. Further, in the data set “purified protein [2]”, the Km was 79.2 ± 18.3 µM, the kcat stood at 19.8 ± 1.1 s⁻¹ and the catalytic efficiency (kcat/Km) came to 250000 M⁻¹ s⁻¹. Moreover, in “purified protein [3]”, the Km was determined as 13.6 ± 2.9 µM, the kcat came out at 311 ± 21 s⁻¹ and the catalytic efficiency (kcat/Km) amounted to 2.28e+07 M⁻¹ s⁻¹.

A word on the Km: it is the concentration of substrate that gives half-maximal velocity. As usually defined, the kcat is the maximal rate divided by the concentration of active sites. By kcat/Km is commonly meant the turnover number divided by the Michaelis constant.

The record behind these values is publication PMC7232166, “Expression of Pleurotus ostreatus Laccase Gene in Pichia pastoris and Its Degradation of Corn Stover Lignin” (Microorganisms, 2020).
